Results reported in US20250218531A1 (ABSCI, published 2025).
Substitutions are numbered along the chain they refer to.

B1: Trastuzumab HCDR3 variant ARYGYGYYYYFDY (Fab, V domains shown)
VH: EVQLVESGGGLVQPGGSLRLSCAASGFNIKDTYIHWVRQAPGKGLEWVARIYPTNGYTRYADSVKGRFTISADTSKNTAYLQMNSLRAEDTAVYYCARYGYGYYYYFDYWGQGTLVTVSS
VL: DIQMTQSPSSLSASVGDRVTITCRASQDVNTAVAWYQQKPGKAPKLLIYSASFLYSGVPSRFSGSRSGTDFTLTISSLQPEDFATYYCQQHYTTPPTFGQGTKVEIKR
B2: Trastuzumab HCDR3 variant AGSVAEGWYHYRD (Fab, V domains shown)
VH: EVQLVESGGGLVQPGGSLRLSCAASGFNIKDTYIHWVRQAPGKGLEWVARIYPTNGYTRYADSVKGRFTISADTSKNTAYLQMNSLRAEDTAVYYCAGSVAEGWYHYRDWGQGTLVTVSS
VL: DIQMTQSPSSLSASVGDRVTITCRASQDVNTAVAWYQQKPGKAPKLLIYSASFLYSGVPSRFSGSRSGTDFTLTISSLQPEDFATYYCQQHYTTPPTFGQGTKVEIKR
B3: Trastuzumab HCDR3 variant AGYEGYGLYPFAY (Fab, V domains shown)
VH: B1 VH with R98G, G100E, Y101G, G102Y, Y103G, Y104L, Y106P, D108A
VL: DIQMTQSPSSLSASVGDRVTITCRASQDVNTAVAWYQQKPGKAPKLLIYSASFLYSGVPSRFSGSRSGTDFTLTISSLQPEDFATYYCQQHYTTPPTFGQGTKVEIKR
B4: Trastuzumab HCDR3 variant AGSSASGWYHYTT (Fab, V domains shown)
VH: B2 VH with V100S, E102S, R108T, D109T
VL: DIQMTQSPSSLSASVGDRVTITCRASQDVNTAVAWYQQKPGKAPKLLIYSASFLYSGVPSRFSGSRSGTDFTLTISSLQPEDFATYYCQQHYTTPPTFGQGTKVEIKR
B5: Trastuzumab HCDR3 variant AIWSMYDVGYYPF (Fab, V domains shown)
VH: EVQLVESGGGLVQPGGSLRLSCAASGFNIKDTYIHWVRQAPGKGLEWVARIYPTNGYTRYADSVKGRFTISADTSKNTAYLQMNSLRAEDTAVYYCAIWSMYDVGYYPFWGQGTLVTVSS
VL: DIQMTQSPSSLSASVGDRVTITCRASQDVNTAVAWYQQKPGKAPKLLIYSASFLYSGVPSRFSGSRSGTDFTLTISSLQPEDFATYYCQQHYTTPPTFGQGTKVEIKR
B6: Trastuzumab HCDR3 variant ARWRDYYYYFDY (Fab, V domains shown)
VH: EVQLVESGGGLVQPGGSLRLSCAASGFNIKDTYIHWVRQAPGKGLEWVARIYPTNGYTRYADSVKGRFTISADTSKNTAYLQMNSLRAEDTAVYYCARWRDYYYYFDYWGQGTLVTVSS
VL: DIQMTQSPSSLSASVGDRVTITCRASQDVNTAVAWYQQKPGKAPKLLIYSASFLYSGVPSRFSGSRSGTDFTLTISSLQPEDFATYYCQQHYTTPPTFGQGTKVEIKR
B7: Trastuzumab HCDR3 variant ARYWYGSYVFDY (Fab, V domains shown)
VH: B6 VH with W99Y, R100W, D101Y, Y102G, Y103S, Y105V
VL: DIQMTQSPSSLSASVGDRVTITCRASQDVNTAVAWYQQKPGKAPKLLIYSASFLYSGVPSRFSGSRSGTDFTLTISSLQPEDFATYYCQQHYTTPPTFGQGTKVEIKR
B8: Trastuzumab HCDR3 variant ARYLSYSYAWDN (Fab, V domains shown)
VH: B6 VH with W99Y, R100L, D101S, Y103S, Y105A, F106W, Y108N
VL: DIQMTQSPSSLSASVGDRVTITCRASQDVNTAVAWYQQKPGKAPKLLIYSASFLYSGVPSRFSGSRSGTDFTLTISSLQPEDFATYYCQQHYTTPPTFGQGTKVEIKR
B9: Trastuzumab HCDR3 variant ARYPEDFYYFDV (Fab, V domains shown)
VH: B6 VH with W99Y, R100P, D101E, Y102D, Y103F, Y108V
VL: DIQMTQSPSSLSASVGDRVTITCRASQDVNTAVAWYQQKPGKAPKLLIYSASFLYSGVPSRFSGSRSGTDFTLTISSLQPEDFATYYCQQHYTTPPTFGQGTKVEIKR
B10: Trastuzumab HCDR3 variant TLNGPLYWMWTL (Fab, V domains shown)
VH: EVQLVESGGGLVQPGGSLRLSCAASGFNIKDTYIHWVRQAPGKGLEWVARIYPTNGYTRYADSVKGRFTISADTSKNTAYLQMNSLRAEDTAVYYCTLNGPLYWMWTLWGQGTLVTVSS
VL: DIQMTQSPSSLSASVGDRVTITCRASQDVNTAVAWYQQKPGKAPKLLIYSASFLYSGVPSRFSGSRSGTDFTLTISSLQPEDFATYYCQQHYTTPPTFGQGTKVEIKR
B11: Trastuzumab HCDR3 variant ARYGSGYYGLDY (Fab, V domains shown)
VH: B6 VH with W99Y, R100G, D101S, Y102G, Y105G, F106L
VL: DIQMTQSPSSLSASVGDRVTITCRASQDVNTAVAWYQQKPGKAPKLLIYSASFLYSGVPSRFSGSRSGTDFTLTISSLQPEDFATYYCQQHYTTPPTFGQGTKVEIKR
B12: Trastuzumab HCDR3 variant ARYLSYSYAWDY (Fab, V domains shown)
VH: B6 VH with W99Y, R100L, D101S, Y103S, Y105A, F106W
VL: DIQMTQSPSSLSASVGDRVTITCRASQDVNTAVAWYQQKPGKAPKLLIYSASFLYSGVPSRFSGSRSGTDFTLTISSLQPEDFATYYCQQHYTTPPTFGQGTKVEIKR
B13: Trastuzumab HCDR3 variant ARYYGYYYYMDY (Fab, V domains shown)
VH: B6 VH with W99Y, R100Y, D101G, F106M
VL: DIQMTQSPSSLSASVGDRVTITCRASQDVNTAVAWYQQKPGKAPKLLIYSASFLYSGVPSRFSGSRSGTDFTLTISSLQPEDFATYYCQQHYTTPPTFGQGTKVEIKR
B14: Trastuzumab HCDR3 variant ASYMGIVGYYPG (Fab, V domains shown)
VH: B6 VH with R98S, W99Y, R100M, D101G, Y102I, Y103V, Y104G, F106Y, D107P, Y108G
VL: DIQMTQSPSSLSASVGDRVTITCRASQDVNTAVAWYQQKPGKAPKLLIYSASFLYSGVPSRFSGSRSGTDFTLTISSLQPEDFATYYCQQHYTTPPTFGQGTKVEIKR
B15: Trastuzumab HCDR3 variant ARYFGGSYAYGR (Fab, V domains shown)
VH: B6 VH with W99Y, R100F, D101G, Y102G, Y103S, Y105A, F106Y, D107G, Y108R
VL: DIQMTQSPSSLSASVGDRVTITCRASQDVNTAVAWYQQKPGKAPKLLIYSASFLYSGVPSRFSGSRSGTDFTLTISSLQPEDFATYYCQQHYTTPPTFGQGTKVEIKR
B16: Trastuzumab HCDR3 variant ARYHNTGYFWGA (Fab, V domains shown)
VH: B6 VH with W99Y, R100H, D101N, Y102T, Y103G, Y105F, F106W, D107G, Y108A
VL: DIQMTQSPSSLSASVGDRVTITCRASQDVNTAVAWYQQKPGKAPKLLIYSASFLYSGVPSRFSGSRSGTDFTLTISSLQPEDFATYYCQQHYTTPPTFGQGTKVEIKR
B17: Trastuzumab HCDR3 variant ARYYDDTIYSFY (Fab, V domains shown)
VH: B6 VH with W99Y, R100Y, Y102D, Y103T, Y104I, F106S, D107F
VL: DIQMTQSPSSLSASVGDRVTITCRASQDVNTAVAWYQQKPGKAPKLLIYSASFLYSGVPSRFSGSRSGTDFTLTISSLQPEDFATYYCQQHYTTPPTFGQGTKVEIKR
B18: Trastuzumab HCDR3 variant ARYADYQFHFDN (Fab, V domains shown)
VH: B6 VH with W99Y, R100A, Y103Q, Y104F, Y105H, Y108N
VL: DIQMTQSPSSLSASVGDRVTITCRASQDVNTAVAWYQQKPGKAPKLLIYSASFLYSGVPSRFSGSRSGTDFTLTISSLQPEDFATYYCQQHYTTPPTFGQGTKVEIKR
B19: Trastuzumab HCDR3 variant VKHGIDYYWYGD (Fab, V domains shown)
VH: B6 VH with A97V, R98K, W99H, R100G, D101I, Y102D, Y105W, F106Y, D107G, Y108D
VL: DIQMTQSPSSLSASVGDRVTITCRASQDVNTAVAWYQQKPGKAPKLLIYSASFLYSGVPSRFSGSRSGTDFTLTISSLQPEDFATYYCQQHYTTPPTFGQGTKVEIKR
B20: Trastuzumab HCDR3 variant ARWSWPGYEFEF (Fab, V domains shown)
VH: B6 VH with R100S, D101W, Y102P, Y103G, Y105E, D107E, Y108F
VL: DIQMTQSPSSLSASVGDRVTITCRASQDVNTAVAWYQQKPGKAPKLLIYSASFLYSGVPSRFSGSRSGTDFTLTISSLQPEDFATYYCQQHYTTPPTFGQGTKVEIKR
B21: Trastuzumab HCDR3 variant SIYGTDYYWFAD (Fab, V domains shown)
VH: B6 VH with A97S, R98I, W99Y, R100G, D101T, Y102D, Y105W, D107A, Y108D
VL: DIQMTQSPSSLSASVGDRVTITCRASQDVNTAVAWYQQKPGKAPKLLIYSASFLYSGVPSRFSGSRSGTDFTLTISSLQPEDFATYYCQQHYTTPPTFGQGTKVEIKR
B22: Trastuzumab HCDR3 variant ARYGRDYYYFDV (Fab, V domains shown)
VH: B6 VH with W99Y, R100G, D101R, Y102D, Y108V
VL: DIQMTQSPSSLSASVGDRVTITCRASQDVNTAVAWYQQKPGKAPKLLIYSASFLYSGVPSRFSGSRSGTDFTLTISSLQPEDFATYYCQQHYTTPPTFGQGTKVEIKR
B23: Trastuzumab HCDR3 variant TRTRSGAYFFDY (Fab, V domains shown)
VH: B6 VH with A97T, W99T, D101S, Y102G, Y103A, Y105F
VL: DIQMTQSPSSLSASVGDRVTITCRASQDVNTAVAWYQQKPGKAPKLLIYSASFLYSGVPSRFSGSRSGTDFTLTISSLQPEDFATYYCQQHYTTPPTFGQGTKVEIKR
B24: Trastuzumab HCDR3 variant ARYYVGYYAMDY (Fab, V domains shown)
VH: B6 VH with W99Y, R100Y, D101V, Y102G, Y105A, F106M
VL: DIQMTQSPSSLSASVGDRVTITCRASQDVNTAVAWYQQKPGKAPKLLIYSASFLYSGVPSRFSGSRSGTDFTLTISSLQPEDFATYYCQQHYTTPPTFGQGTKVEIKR
B25: Trastuzumab HCDR3 variant ATNAFGLWSYGF (Fab, V domains shown)
VH: B10 VH with T97A, L98T, G100A, P101F, L102G, Y103L, M105S, W106Y, T107G, L108F
VL: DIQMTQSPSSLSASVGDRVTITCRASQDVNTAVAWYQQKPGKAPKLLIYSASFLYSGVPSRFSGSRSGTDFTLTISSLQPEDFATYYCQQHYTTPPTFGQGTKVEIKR
B26: Trastuzumab HCDR3 variant … (Fab, V domains shown)
VH: B6 VH with W99Y, R100Y, Y103G, Y105T
VL: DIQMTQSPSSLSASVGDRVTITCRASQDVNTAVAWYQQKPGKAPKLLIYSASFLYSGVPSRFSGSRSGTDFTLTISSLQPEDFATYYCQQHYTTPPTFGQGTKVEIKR
B27: Trastuzumab HCDR3 variant ARYGTYGYAMDY (Fab, V domains shown)
VH: B6 VH with W99Y, R100G, D101T, Y103G, Y105A, F106M
VL: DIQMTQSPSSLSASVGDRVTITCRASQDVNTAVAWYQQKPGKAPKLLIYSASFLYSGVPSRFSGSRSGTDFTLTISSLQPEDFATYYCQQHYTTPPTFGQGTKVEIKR
B28: Trastuzumab HCDR3 variant ASYYDYYYAFGT (Fab, V domains shown)
VH: B6 VH with R98S, W99Y, R100Y, Y105A, D107G, Y108T
VL: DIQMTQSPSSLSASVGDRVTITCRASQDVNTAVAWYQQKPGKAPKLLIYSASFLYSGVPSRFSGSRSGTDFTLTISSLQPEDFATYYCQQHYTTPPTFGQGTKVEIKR
B29: Trastuzumab HCDR3 variant ASGDLTAGSSQT (Fab, V domains shown)
VH: EVQLVESGGGLVQPGGSLRLSCAASGFNIKDTYIHWVRQAPGKGLEWVARIYPTNGYTRYADSVKGRFTISADTSKNTAYLQMNSLRAEDTAVYYCASGDLTAGSSQTWGQGTLVTVSS
VL: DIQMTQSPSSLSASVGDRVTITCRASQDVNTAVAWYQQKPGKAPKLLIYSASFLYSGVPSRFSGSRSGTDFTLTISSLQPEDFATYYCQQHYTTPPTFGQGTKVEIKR
B30: Trastuzumab HCDR3 variant ARYLSYSFAWDY (Fab, V domains shown)
VH: B6 VH with W99Y, R100L, D101S, Y103S, Y104F, Y105A, F106W
VL: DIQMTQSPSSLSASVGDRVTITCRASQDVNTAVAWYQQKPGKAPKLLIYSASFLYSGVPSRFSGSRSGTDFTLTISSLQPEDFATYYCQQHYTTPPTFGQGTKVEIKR
B31: Trastuzumab HCDR3 variant ARYLEYTYAWDY (Fab, V domains shown)
VH: B6 VH with W99Y, R100L, D101E, Y103T, Y105A, F106W
VL: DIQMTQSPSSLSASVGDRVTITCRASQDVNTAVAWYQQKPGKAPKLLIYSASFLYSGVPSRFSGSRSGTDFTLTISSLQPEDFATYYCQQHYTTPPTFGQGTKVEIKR
B32: Trastuzumab HCDR3 variant TRYFYDFPYMDY (Fab, V domains shown)
VH: B6 VH with A97T, W99Y, R100F, D101Y, Y102D, Y103F, Y104P, F106M
VL: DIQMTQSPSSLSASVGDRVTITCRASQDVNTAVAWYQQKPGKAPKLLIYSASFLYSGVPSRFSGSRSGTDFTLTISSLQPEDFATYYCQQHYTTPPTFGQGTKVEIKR
B33: Trastuzumab HCDR3 variant VRYYRGYYYFDY (Fab, V domains shown)
VH: B6 VH with A97V, W99Y, R100Y, D101R, Y102G
VL: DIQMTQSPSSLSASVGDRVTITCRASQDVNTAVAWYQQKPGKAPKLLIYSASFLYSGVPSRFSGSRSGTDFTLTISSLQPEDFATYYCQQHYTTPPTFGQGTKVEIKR
B34: Trastuzumab HCDR3 variant ARYQAYDNSYGV (Fab, V domains shown)
VH: B6 VH with W99Y, R100Q, D101A, Y103D, Y104N, Y105S, F106Y, D107G, Y108V
VL: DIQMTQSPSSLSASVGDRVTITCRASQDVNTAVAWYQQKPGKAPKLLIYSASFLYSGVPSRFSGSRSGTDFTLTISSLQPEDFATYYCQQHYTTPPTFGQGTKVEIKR
B35: Trastuzumab HCDR3 variant ARYGGAGYYLDY (Fab, V domains shown)
VH: B6 VH with W99Y, R100G, D101G, Y102A, Y103G, F106L
VL: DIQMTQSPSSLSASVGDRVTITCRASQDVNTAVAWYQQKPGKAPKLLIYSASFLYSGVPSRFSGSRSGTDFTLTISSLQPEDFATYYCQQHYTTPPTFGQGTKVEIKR
B36: Trastuzumab HCDR3 variant ARYYGGLYYFDY (Fab, V domains shown)
VH: B6 VH with W99Y, R100Y, D101G, Y102G, Y103L
VL: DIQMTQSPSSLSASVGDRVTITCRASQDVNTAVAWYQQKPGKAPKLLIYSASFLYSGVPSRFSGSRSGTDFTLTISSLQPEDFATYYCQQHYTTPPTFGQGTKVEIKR
B37: Trastuzumab HCDR3 variant TRNGPLYWHWDL (Fab, V domains shown)
VH: B10 VH with L98R, M105H, T107D
VL: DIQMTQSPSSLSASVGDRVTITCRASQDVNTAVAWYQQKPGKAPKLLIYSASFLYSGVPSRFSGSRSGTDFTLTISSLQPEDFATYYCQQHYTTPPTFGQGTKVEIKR
B38: Trastuzumab HCDR3 variant ARYLSYSYAWNY (Fab, V domains shown)
VH: B6 VH with W99Y, R100L, D101S, Y103S, Y105A, F106W, D107N
VL: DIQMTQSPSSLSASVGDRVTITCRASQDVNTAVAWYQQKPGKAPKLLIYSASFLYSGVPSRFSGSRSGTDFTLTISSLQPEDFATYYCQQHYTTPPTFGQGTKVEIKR
B39: Trastuzumab HCDR3 variant ARYPYGYYAMDY (Fab, V domains shown)
VH: B6 VH with W99Y, R100P, D101Y, Y102G, Y105A, F106M
VL: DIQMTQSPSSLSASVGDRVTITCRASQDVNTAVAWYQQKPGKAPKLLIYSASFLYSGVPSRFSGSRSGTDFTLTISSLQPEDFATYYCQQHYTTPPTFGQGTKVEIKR
B40: Trastuzumab HCDR3 variant TRYYDGYYAMDY (Fab, V domains shown)
VH: B6 VH with A97T, W99Y, R100Y, Y102G, Y105A, F106M
VL: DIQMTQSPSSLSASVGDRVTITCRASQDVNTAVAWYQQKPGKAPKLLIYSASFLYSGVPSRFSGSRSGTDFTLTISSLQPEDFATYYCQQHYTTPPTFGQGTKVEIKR
B41: Trastuzumab HCDR3 variant ARYHYSGYFMDS (Fab, V domains shown)
VH: B6 VH with W99Y, R100H, D101Y, Y102S, Y103G, Y105F, F106M, Y108S
VL: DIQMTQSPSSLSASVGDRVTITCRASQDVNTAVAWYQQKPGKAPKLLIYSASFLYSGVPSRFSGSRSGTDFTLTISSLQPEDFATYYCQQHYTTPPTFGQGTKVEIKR
B42: Trastuzumab HCDR3 variant ARYYYSGYYMSV (Fab, V domains shown)
VH: B6 VH with W99Y, R100Y, D101Y, Y102S, Y103G, F106M, D107S, Y108V
VL: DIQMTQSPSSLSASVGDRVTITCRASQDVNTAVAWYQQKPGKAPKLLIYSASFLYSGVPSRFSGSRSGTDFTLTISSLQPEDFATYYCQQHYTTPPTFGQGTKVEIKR
B43: Trastuzumab HCDR3 variant ATGPYTVYSYPY (Fab, V domains shown)
VH: B29 VH with S98T, D100P, L101Y, A103V, G104Y, S106Y, Q107P, T108Y
VL: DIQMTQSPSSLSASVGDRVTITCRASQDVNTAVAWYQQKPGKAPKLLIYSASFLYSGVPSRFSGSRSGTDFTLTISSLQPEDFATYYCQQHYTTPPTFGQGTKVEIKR
B44: Trastuzumab HCDR3 variant SRWYGDYFAMDY (Fab, V domains shown)
VH: B6 VH with A97S, R100Y, D101G, Y102D, Y104F, Y105A, F106M
VL: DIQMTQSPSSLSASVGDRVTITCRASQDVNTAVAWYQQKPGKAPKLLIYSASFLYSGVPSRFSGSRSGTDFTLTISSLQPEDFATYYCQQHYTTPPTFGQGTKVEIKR
B45: Trastuzumab HCDR3 variant ARYGVYGYAMDY (Fab, V domains shown)
VH: B6 VH with W99Y, R100G, D101V, Y103G, Y105A, F106M
VL: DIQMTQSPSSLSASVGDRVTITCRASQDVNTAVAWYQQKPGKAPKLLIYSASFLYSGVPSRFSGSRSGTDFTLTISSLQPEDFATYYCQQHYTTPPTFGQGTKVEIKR
B46: Trastuzumab HCDR3 variant ARYHFSGYFMDA (Fab, V domains shown)
VH: B6 VH with W99Y, R100H, D101F, Y102S, Y103G, Y105F, F106M, Y108A
VL: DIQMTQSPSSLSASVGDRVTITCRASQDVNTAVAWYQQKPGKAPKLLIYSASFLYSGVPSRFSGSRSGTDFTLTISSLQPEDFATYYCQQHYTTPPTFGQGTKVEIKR
B47: Trastuzumab HCDR3 variant TRTTLGFYAMDY (Fab, V domains shown)
VH: B6 VH with A97T, W99T, R100T, D101L, Y102G, Y103F, Y105A, F106M
VL: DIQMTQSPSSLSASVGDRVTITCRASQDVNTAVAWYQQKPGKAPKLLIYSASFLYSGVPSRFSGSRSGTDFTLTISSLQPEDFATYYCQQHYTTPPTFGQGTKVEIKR
B48: Trastuzumab HCDR3 variant ARYSYGAFYYSI (Fab, V domains shown)
VH: B6 VH with W99Y, R100S, D101Y, Y102G, Y103A, Y104F, F106Y, D107S, Y108I
VL: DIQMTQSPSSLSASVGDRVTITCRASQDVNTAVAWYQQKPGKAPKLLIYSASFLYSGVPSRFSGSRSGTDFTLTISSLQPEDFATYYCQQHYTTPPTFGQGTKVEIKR
B49: Trastuzumab HCDR3 variant ARYPDYYYAMDY (Fab, V domains shown)
VH: B6 VH with W99Y, R100P, Y105A, F106M
VL: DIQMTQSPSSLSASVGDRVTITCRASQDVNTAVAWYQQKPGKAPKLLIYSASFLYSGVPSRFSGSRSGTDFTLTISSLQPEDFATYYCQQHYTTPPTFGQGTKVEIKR
B50: Trastuzumab HCDR3 variant ARYGYYGYWFDY (Fab, V domains shown)
VH: B6 VH with W99Y, R100G, D101Y, Y103G, Y105W
VL: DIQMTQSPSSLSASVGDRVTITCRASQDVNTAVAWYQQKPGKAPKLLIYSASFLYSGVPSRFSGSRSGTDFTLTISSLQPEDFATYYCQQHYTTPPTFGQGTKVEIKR

Target: human epidermal growth factor receptor 2 (HER2) extracellular domain (human, UniProt P04626 23-629)
Experiment: SPR

Binder	Kd	log(KD (M))
B1	0.0391 µM	-7.41 log(M)
B2	0.0603 µM	-7.22 log(M)
B3	0.128 µM	-6.89 log(M)
B4	0.0423 µM	-7.37 log(M)
B5	0.0718 µM	-7.14 log(M)
B6	0.0338 µM	-7.47 log(M)
B7	0.0783 µM	-7.11 log(M)
B8	0.0426 µM	-7.37 log(M)
B9	0.0402 µM	-7.4 log(M)
B10	0.116 µM	-6.94 log(M)
B11	0.0515 µM	-7.29 log(M)
B12	0.0548 µM	-7.26 log(M)
B13	0.0743 µM	-7.13 log(M)
B14	0.0623 µM	-7.21 log(M)
B15	0.028 µM	-7.55 log(M)
B16	0.061 µM	-7.22 log(M)
B17	0.0299 µM	-7.53 log(M)
B18	0.0396 µM	-7.4 log(M)
B19	0.0601 µM	-7.22 log(M)
B20	0.177 µM	-6.75 log(M)
B21	0.0504 µM	-7.3 log(M)
B22	0.106 µM	-6.97 log(M)
B23	0.0434 µM	-7.36 log(M)
B24	0.0716 µM	-7.15 log(M)
B25	0.0528 µM	-7.28 log(M)

Binder	Kd	log(KD (M))
B26	0.0612 µM	-7.21 log(M)
B27	0.0655 µM	-7.18 log(M)
B28	0.0361 µM	-7.44 log(M)
B29	0.219 µM	-6.66 log(M)
B30	0.0599 µM	-7.22 log(M)
B31	0.218 µM	-6.66 log(M)
B32	0.0568 µM	-7.25 log(M)
B33	0.0964 µM	-7.02 log(M)
B34	0.102 µM	-6.99 log(M)
B35	0.0324 µM	-7.49 log(M)
B36	0.0344 µM	-7.46 log(M)
B37	0.234 µM	-6.63 log(M)
B38	0.0289 µM	-7.54 log(M)
B39	0.0781 µM	-7.11 log(M)
B40	0.0331 µM	-7.48 log(M)
B41	0.113 µM	-6.95 log(M)
B42	0.0852 µM	-7.07 log(M)
B43	0.12 µM	-6.92 log(M)
B44	0.0518 µM	-7.29 log(M)
B45	0.0533 µM	-7.27 log(M)
B46	0.103 µM	-6.99 log(M)
B47	0.0323 µM	-7.49 log(M)
B48	0.0704 µM	-7.15 log(M)
B49	0.117 µM	-6.93 log(M)
B50	0.0594 µM	-7.23 log(M)
